Numbering of substitutions follows the chain as printed.
B1: M6CH1 (antibody, human IgG1, kappa, V domains shown)
VH: EVQLQQSGPVLVKPGASVKMSCKASGYTFTDYYMNWVKQSHGKSLEWIGIINPYSGVTIYNHKFKGKATLTVDKSSNTAYMELNSLTSEDSAVYYCARQDSLLDYAMDYWGQGTSVTVSS
VL: DILMTQSPSSMSVSLGDTVSITCHASQGISGNMGWLQQKPGKSFKGLIYHGANLEDGVPSRFSGSGSGADYSLTISSLESEDFADYYCVQYAQFPYTFGGGTKLEIKR
notes: chimeric antibody of mAb6, human IgG1/kappa; also called M6CHI
B2: hu6L1H1 (antibody, human IgG1, kappa, V domains shown)
VH: EVQLVQSGAEVKKPGASVKVSCKASGYTFTDYYMNWVRQAPGQRLEWMGIINPYSGVTIYNHKFKGRVTITVDKSASTAYMELSSLRSEDTAVYYCARQDSLLDYAMDYWGQGTTVTVSS
VL: DIQMTQSPSSLSASVGDRVTITCHASQGISGNMGWLQQKPGKAPKGLIYHGANLEDGVPSRFSGSGSGTDFTLTISSLQPEDFATYYCVQYAQFPYTFGGGTKVEIKR
B3: hu6L1H2 (antibody, human IgG1, kappa, V domains shown)
VH: B2 VH with I70L, S77N
VL: B2 VL
B4: hu6L1H3 (antibody, human IgG1, kappa, V domains shown)
VH: B2 VH with M48I, V68A, I70L, S77N
VL: B2 VL
B5: hu6L2H1 (antibody, human IgG1, kappa, V domains shown)
VH: B2 VH
VL: B2 VL with T69A, F71Y
B6: hu6L2H3 (antibody, human IgG1, kappa, V domains shown)
VH: B2 VH with M48I, V68A, I70L, S77N
VL: B2 VL with T69A, F71Y
B7: hu6L3H1 (antibody, human IgG1, kappa, V domains shown)
VH: B2 VH
VL: B2 VL with A43S, P44F, T69A, F71Y
B8: hu6L3H2 (antibody, human IgG1, kappa, V domains shown)
VH: B2 VH with I70L, S77N
VL: B2 VL with A43S, P44F, T69A, F71Y
B9: hu6L3H3 (antibody, human IgG1, kappa, V domains shown)
VH: B2 VH with M48I, V68A, I70L, S77N
VL: B2 VL with A43S, P44F, T69A, F71Y
B10: hu6L4H6 (antibody, human IgG1, kappa, V domains shown)
VH: EVQLVQSGSELKKPGASVKVSCKASGYTFTDYYMNWVRQAPGQGLEWMGIINPYSGVTIYNHKFKGRFVLSVDKSSNTAYLQISSLKAEDTAVYYCARQDSLLDYAMDYWGQGTTVTVSS
VL: B2 VL with T69A, F71Y, T85D
B11: M98CH1 (antibody, human IgG1, kappa, V domains shown)
VH: EVQLVESGGGLVKPGGSLKLSCAASGFTFSDYGIHWVRQAPEKGLEWVAYISSGGYTIYYADTVKGRFTISRDNAKNTLFLQMTSLRSEDTAMYYCARGDYDDIFYTMDYWGQGTSVTVSS
VL: DIQMTQTTSSLSASLGDRVTISCRASRDITKFLNWYQQKPDGTVKLLIYYTSRLHSGVPSRFSGSGSGTDYSLTISNLDQEDIATYFCQQGNTLPWTFGGGTKLDIKR
notes: chimeric antibody of mAb98, human IgG1/kappa; also called M98CHI
B12: hu98L1H2 (antibody, human IgG1, kappa, V domains shown)
VH: B11 VH with K13Q, K19R, E42G, T78S, F80Y, T84N, S88A, M93V, D102E, S116T
VL: DIQMTQSPSSLSASVGDRVTITCRASRDITKFLNWYQQKPGKAPKLLIYYTSRLHSGVPSRFSGSGSGTDFTLTISSLQPEDFATYYCQQGNTLPWTFGGGTKVEIKR

target: T1, human DLL3 (ACRO, DLL3-H52H4) (human, UniProt Q9NYJ7 27-492); assay: SPR Biacore 8K, Ab captured on Protein A
T1 construct: Bought
T1 sequence: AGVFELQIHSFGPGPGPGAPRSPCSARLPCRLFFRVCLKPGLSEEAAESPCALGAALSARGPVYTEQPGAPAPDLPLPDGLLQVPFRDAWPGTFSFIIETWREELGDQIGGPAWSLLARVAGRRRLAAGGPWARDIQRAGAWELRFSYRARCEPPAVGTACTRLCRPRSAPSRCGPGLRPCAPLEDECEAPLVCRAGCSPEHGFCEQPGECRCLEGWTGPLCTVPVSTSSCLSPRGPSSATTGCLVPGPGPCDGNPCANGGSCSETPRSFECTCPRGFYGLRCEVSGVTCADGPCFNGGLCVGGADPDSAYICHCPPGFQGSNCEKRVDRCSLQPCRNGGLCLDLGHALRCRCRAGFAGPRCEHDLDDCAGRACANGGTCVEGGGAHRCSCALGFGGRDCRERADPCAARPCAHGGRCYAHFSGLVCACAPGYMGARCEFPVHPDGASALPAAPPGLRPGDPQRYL
Source text: Test antibodies were affinity-captured with a Protein A biosensor chip (Cat. #29127556, Cytiva) for 18 seconds, and then the antigens human DLL3 (ACRO, DLL3-H52H4), cynomolgus monkey DLL3 (KACTUS, DLL-RM103), mouse DLL3 (KACTUS, DLL-MM103), human CD3D&3E (ACRO, CDD-H52W1), and monkey CD3D&3E (ACRO, CDD-C52W4) were allowed to flow through the surface of the chip for 180 seconds, followed by 600 seconds of dissociation. Reaction signals were detected in real time using a Biacore 8K (Cytiva) instrument to obtain association and dissociation curves. After the dissociation in each experimental cycle, the chip was washed and regenerated with a 10 mM glycine-hydrochloric acid solution (pH 1.5, Cat. #BR-1003-54, Cytiva). Data fitting was performed using a 1:1 Model.

| Binder | Kd [nM] | koff [s⁻¹] | kon [M⁻¹ s⁻¹] |
| --- | --- | --- | --- |
| B1 | 0.681 | 0.000657 | 965000 |
| B2 | 2.81 | 0.00225 | 798000 |
| B3 | 2.19 | 0.00173 | 787000 |
| B4 | 2.76 | 0.00224 | 812000 |
| B5 | 2.19 | 0.00155 | 709000 |
| B6 | 2.01 | 0.00139 | 695000 |
| B7 | 2.02 | 0.00144 | 715000 |
| B8 | 1.59 | 0.00114 | 716000 |
| B9 | 1.88 | 0.00135 | 718000 |
| B10 | 0.424 | 0.000811 | 1.91e+06 |
| B11 | 0.429 | 0.000682 | 1.59e+06 |
| B12 | 1.97 | 0.00307 | 1.56e+06 |

— patent US20250376519A1 (JIANGSU HENGRUI PHARMACEUTICALS, published 2025)
